Data on 1 molecule can be found in patent US20080085859A1, “Drug Promoting Ceramide Transport, Base Sequence for Producing the Drug, Method of Measuring Activity of Promoting Ceramide Release and Method of Measuring Activity of Promoting Intermembrane Ceramide Transfer” (JAPAN SCIENCE AND TECHNOLOGY AGENCY, priority 2003, published 2008).

Experiment [1] concerns LY-A2 cell. Nature of the experiment: cell labeling using C5-DMB-Cer and fluorescence microscopy (ER to Golgi apparatus). The following applies: C5-DMB-Cer, traced at 33° C. 15 minutes, LY-A2/hCERT, FIG. 6. Type of experiment: cell-based, Chinese hamster. Here is the method:
The present inventors have already made it clear that the activity of ATP dependent transport from the endoplasmic reticulum of natural ceramide (hereinafter, also referred to as ER) to Golgi apparatus can be qualitatively evaluated from the analysis of reallocation from ER of C5-DMB-Cer which is a fluorescent ceramide analogue to Golgi apparatus (J. Cell Biol. 144,673-685, 1999). As described in detail, the cell was exposed to C5-DMB-Cer at 4° C. for 30 minutes for the purpose of performing the pulse labeling of a variety of organelle membranes within a cell containing ER, after washing, it was traced at 33° C. for 15 minutes by a fluorescene microscopy observation method. A method of performing cell labeling using C5-DMB-Cer and a method of performing an observation by a fluorescence microscopy were carried out by a method of Yasuda et al (J. Biol. Chem. 276, 43994-44002, 2001) and a method of Fukasawa et al (J. Cell Biol. 144, 673-685, 1999). Specifically, after CHO-K1 cell, LY-A2 cell and LY-A2/hCERT cell grown on a coverslip made of glass were treated at 4° C. for 30 minutes in F12 medium containing 1 micro-M C5-DMB-Cer, it was washed three times in 1 mL of F12 medium. […] The sample was observed under the fluorescence microscopy immediately after it has been fixed and photographed with a digital CCD camera.

Experiment [2] in a line: activity for promoting ceramide intermembrane transfer (donating/receiving membrane, castor seed lectin). Type of experiment: biochemical. From the text: Subsequently, as described in detail below, whether or not hCERT protein and recombinant protein promotes the transfer between ceramide lipid membrane was considered, the purified hCERT protein and its recombinant protein were used in this assay were used. The present method was constructed on the basis of the principle of method of measuring the activity for promoting the intermembrane transfer of phosphatidylinositol by phosphatidylinositol transfer protein already reported by Kasper et al (Biochim. Biophys. Acta 664, 22-32, 1981) so that it becomes a new method of measuring the activity for promoting the ceramide intermembrane transfer. For the purpose of measuring the activity for promoting the intermembrane transfer, a donating membrane in which radioactive ceramide has been contained and a receiving membrane not containing ceramide were prepared. For the purpose of separating the lipid membrane, lactocylceramide was contained in the donating membrane. After the donating membrane and receiving membrane have been incubated with the protein sample to be targeted, castor seed lectin was added. Ceramide intermembrane-transferred can be quantified by measuring the radioactive activity of receptor membrane which has not been precipitated by a low speed centrifugation. […]

B1: hCERT protein: human CERT protein having an amino acid sequence of SEQ ID NO:1 (protein)
chain: MSDNQSWNSSGSEEDPETESGPPVERCGVLSKWTNYIHGWQDRWVVLKNNALSYYKSEDETEYGCRGSICLSKAVITPHDFDECRFDISVNDSVWYLRAQDPDHRQQWIDAIEQHKTESGYGSESSLRRHGSMVSLVSGASGYSATSTSSFKKGHSLREKLAEMETFRDILCRQVDTLQKYFDACADAVSKDELQRDKVVEDDEDDFPTTRSDGDFLHSTNGNKEKLFPHVTPKGINGIDFKGEAITFKATTAGILATLSHCIELMVKREDSWQKRLDKETEKKRRTEEAYKNAMTELKKKSHFGGPDYEEGPNSLINEEEFFDAVEAALDRQDKIEEQSQSEKVRLHWPTSLPSGDAFSSVGTHRFVQKVEEMVQNHMTYSLQDVGGDANWQLVVEEGEMKVYRREVEENGIVLDPLKATHAVKGVTGHEVCNYFWNVDVRNDWETTIENFHVVETLADNAIIIYQTHKRVWPASQRDVLYLSVIRKIPALTENDPETWIVCNFSVDHDSAPLNNRCVRAKINVAMICQTLVSPPEGNQEISRDNILCKITYVANVNPGGWAPASVLRAVAKREYPKFLKRFTSYVQEKTAGKPILF
modifications: HeLa cell
For B1, the “accumulation of DMB fluorescence to Golgi apparatus region” value in experiment [1] was “accumulation comparable to CHO-K1 cell”. For the same molecule, in experiment [2] (37° C., 14C of supernatant and donating membrane, FIGS. 17, 18), the “activity for promoting ceramide intermembrane transfer” value is “detected depending on the amount of hCERT, the length of incubation time and incubation temperature”. Also, in experiment [2] (for 10 minutes), the “ceramide transferred to the receiving membrane vesicle” value is on record as about 50%.
